Values of other authors as cited in paper PMC6225487.

Biological target: TfR (Homo sapiens) (UniProt P02786)
Sequence (P02786 89-760): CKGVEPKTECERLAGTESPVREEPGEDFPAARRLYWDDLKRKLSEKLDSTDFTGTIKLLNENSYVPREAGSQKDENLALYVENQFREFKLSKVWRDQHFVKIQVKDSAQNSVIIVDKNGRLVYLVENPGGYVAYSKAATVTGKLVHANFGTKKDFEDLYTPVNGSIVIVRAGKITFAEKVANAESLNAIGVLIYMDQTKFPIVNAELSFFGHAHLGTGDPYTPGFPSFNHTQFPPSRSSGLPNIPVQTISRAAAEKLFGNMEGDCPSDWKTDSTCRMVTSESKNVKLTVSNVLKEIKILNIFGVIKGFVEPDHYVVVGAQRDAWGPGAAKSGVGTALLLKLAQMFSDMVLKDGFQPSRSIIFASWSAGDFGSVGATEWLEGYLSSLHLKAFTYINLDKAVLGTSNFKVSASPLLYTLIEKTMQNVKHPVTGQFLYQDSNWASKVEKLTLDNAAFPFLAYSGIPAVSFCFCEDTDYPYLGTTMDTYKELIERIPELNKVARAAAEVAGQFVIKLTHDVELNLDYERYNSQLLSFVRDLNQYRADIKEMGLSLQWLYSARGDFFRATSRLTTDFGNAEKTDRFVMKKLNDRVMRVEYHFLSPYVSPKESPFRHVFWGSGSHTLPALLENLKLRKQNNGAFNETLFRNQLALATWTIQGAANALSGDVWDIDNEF

Kd: 10 nM
Substance: T7 peptide
